# Experimental data published in the supplement of paper PMC10065799, “High-throughput profiling of sequence recognition by tyrosine kinases and SH2 domains using bacterial peptide display” (eLife, 2023).
# Target: MERTK (UniProt Q12866)
# Assay: phosphorylation enrichment, bacterial display (enrichment ratio); higher = better substrate or ligand; peptides without Tyr show the background
# 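Also: 11-residue human phosphosite peptides and single-mutation variants displayed on the E. coli surface, counted by deep sequencing, each peptide's frequency after selection divided by its frequency in the unselected input library; frequency after pTyr selection over input frequency; kinase dosed for 20-30% of maximal phosphorylation in three min.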
# Chain of MERTK (Q12866 whole entry, looked up): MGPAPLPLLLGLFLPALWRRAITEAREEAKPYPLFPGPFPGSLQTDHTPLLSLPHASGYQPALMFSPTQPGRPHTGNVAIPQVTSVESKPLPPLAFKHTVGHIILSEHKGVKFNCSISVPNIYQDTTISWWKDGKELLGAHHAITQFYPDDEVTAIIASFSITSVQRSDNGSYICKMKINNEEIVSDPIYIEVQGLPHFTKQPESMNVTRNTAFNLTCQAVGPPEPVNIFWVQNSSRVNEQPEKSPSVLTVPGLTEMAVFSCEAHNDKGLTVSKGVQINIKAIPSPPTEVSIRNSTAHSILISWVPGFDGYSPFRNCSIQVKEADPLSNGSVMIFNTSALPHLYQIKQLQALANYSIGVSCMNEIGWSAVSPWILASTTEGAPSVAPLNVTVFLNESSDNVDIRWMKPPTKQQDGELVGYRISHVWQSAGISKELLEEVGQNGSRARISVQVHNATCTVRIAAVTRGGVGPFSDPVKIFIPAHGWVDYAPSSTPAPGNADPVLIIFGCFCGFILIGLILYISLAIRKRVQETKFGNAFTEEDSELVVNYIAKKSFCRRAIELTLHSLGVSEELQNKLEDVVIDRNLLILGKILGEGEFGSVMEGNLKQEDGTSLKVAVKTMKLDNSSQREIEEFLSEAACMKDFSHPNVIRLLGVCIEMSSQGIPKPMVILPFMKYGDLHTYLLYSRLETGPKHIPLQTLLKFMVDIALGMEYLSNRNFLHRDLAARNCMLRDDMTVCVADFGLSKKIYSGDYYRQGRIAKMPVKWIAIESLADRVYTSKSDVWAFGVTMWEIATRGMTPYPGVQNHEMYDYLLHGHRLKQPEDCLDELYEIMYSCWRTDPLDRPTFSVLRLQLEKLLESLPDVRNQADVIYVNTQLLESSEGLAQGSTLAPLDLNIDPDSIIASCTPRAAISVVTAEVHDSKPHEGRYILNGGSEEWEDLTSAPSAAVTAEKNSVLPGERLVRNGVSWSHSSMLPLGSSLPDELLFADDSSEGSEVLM
row,Sequence,phosphorylation enrichment
1,GFRVCYTPDSR [PTPRF_Y451_Y450C_YF],0.419
2,HEGKIYEFNQV [ZNF665_Y162_YF],4.13
3,RLSELYLRRNP [CFAP410_Y68_R73P],0.377
4,RRGTRYMFSRP [RPL21_Y13],0.837
5,FIILIYAMKKK [SLCO1B1_Y645_YF],1.35
6,LIEQAYDNPHE [PRPF8_Y871],0.43
7,FKNGDYSEVMK [LCT_Y1638_N1639S],0.433
8,IIEDPYYGNDF [ACP1_Y132_S137F],1.15
9,HTLMKYTDGDQ [PUS7L_Y94_I92M],0.463
10,VIKDKYPKAHF [APTX_Y209_R213H_YF],0.356
11,AGQEDYDRLRP [CDC42_Y64],0.471
12,GTVRDYPDFSP [ANXA3_Y15],0.364
13,SGPRCYTIAAL [TTR_Y125_R124C],0.344
14,YGGRDYSLDEF [MYOF_Y1705],0.454
15,SNKLTYGTMVF [ACOX1_Y275],0.495
16,EPTPGYEVSQR [TSC2_Y1788_G1791S],0.427
17,RKLASYRSCLL [DHX37_Y1080],0.356

row,Sequence,phosphorylation enrichment
1,QDLLLYQTHSE [PKHD1_Y255_F253L],0.745
2,GGRKGYGDFSR [RECQL5_Y478],0.425
3,KVFRVYQGQQP [MUTYH_Y494],0.344
4,LKLKAYRFSIS [LCT_Y974_V971L],1.15
5,GHLFAYDWIRI [BEST1_Y227_S231R_YF],4.78
6,AFPVSYSSSSA [RET_Y687_G691S],0.536
7,FIGCIYLYLTK [GARS1_Y414_R412C],0.435
8,GFEEAYSVSKK [PAFAH1B1_Y28_F31S_YF],0.377
9,FLLRVYSIFSK [SGCE_Y38_T36R],0.634
10,VGGRIYIDDGL [PKLR_Y218],0.383
11,MDYRSYPREYG [RBM10_Y44],0.296
12,EGELRYMHSRV [ABCD1_Y281_K276E],0.35
13,AIIGIYNLRDD [CDH23_Y2949_I2950N],0.573
14,KAIMTYVFSFY [ACTN4_Y260_S262F],0.436
15,TKAEKYVNKAK [PLCG1_Y991],0.365
16,PELIDYGKLWK [ACTN1_Y193_R197W],0.522

# Target: Fyn (UniProt P06241)
# Assay: as above
# Chain of Fyn (P06241 whole entry, looked up): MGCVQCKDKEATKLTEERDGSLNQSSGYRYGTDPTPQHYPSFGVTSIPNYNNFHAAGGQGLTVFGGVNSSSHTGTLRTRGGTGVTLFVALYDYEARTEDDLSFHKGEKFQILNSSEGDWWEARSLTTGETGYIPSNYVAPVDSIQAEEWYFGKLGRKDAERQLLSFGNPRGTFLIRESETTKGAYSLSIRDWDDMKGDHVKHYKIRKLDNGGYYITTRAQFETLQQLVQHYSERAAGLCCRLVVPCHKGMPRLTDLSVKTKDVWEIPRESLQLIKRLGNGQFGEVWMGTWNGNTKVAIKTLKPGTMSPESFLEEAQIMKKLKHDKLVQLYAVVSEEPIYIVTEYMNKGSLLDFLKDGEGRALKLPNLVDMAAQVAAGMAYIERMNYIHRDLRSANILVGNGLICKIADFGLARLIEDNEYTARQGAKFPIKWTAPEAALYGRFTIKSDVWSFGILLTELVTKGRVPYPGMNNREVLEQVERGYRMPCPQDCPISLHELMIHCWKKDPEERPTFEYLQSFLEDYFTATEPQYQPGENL
row,Sequence,phosphorylation enrichment
1,GFRVCYTPDSR [PTPRF_Y451_Y450C_YF],0.397
2,HEGKIYEFNQV [ZNF665_Y162_YF],6.98
3,RLSELYLRRNP [CFAP410_Y68_R73P],0.407
4,RRGTRYMFSRP [RPL21_Y13],0.829
5,FIILIYAMKKK [SLCO1B1_Y645_YF],0.321
6,LIEQAYDNPHE [PRPF8_Y871],0.645
7,FKNGDYSEVMK [LCT_Y1638_N1639S],0.42
8,IIEDPYYGNDF [ACP1_Y132_S137F],2.71
9,HTLMKYTDGDQ [PUS7L_Y94_I92M],0.595
10,VIKDKYPKAHF [APTX_Y209_R213H_YF],0.389
11,AGQEDYDRLRP [CDC42_Y64],0.546
12,GTVRDYPDFSP [ANXA3_Y15],0.444
13,SGPRCYTIAAL [TTR_Y125_R124C],0.405
14,YGGRDYSLDEF [MYOF_Y1705],0.657
15,SNKLTYGTMVF [ACOX1_Y275],5.28
16,EPTPGYEVSQR [TSC2_Y1788_G1791S],0.437
17,RKLASYRSCLL [DHX37_Y1080],0.515

row,Sequence,phosphorylation enrichment
1,QDLLLYQTHSE [PKHD1_Y255_F253L],1.16
2,GGRKGYGDFSR [RECQL5_Y478],0.334
3,KVFRVYQGQQP [MUTYH_Y494],0.374
4,LKLKAYRFSIS [LCT_Y974_V971L],0.746
5,GHLFAYDWIRI [BEST1_Y227_S231R_YF],0.673
6,AFPVSYSSSSA [RET_Y687_G691S],0.461
7,FIGCIYLYLTK [GARS1_Y414_R412C],0.393
8,GFEEAYSVSKK [PAFAH1B1_Y28_F31S_YF],0.403
9,FLLRVYSIFSK [SGCE_Y38_T36R],0.437
10,VGGRIYIDDGL [PKLR_Y218],0.459
11,MDYRSYPREYG [RBM10_Y44],0.366
12,EGELRYMHSRV [ABCD1_Y281_K276E],0.507
13,AIIGIYNLRDD [CDH23_Y2949_I2950N],6.82
14,KAIMTYVFSFY [ACTN4_Y260_S262F],0.438
15,TKAEKYVNKAK [PLCG1_Y991],0.295
16,PELIDYGKLWK [ACTN1_Y193_R197W],0.601

# System: Fer (mouse)
# Assay: as above
row,Sequence,phosphorylation enrichment
1,GFRVCYTPDSR [PTPRF_Y451_Y450C_YF],0.548
2,HEGKIYEFNQV [ZNF665_Y162_YF],22.6
3,RLSELYLRRNP [CFAP410_Y68_R73P],0.249
4,RRGTRYMFSRP [RPL21_Y13],0.887
5,FIILIYAMKKK [SLCO1B1_Y645_YF],0.354
6,LIEQAYDNPHE [PRPF8_Y871],0.602
7,FKNGDYSEVMK [LCT_Y1638_N1639S],0.362
8,IIEDPYYGNDF [ACP1_Y132_S137F],1.42
9,HTLMKYTDGDQ [PUS7L_Y94_I92M],0.666
10,VIKDKYPKAHF [APTX_Y209_R213H_YF],0.355
11,AGQEDYDRLRP [CDC42_Y64],0.508
12,GTVRDYPDFSP [ANXA3_Y15],0.395
13,SGPRCYTIAAL [TTR_Y125_R124C],0.554
14,YGGRDYSLDEF [MYOF_Y1705],0.618
15,SNKLTYGTMVF [ACOX1_Y275],0.631
16,EPTPGYEVSQR [TSC2_Y1788_G1791S],0.447
17,RKLASYRSCLL [DHX37_Y1080],0.768

row,Sequence,phosphorylation enrichment
1,QDLLLYQTHSE [PKHD1_Y255_F253L],1.81
2,GGRKGYGDFSR [RECQL5_Y478],0.352
3,KVFRVYQGQQP [MUTYH_Y494],0.37
4,LKLKAYRFSIS [LCT_Y974_V971L],1.26
5,GHLFAYDWIRI [BEST1_Y227_S231R_YF],12.5
6,AFPVSYSSSSA [RET_Y687_G691S],0.425
7,FIGCIYLYLTK [GARS1_Y414_R412C],0.486
8,GFEEAYSVSKK [PAFAH1B1_Y28_F31S_YF],0.39
9,FLLRVYSIFSK [SGCE_Y38_T36R],0.433
10,VGGRIYIDDGL [PKLR_Y218],0.681
11,MDYRSYPREYG [RBM10_Y44],0.331
12,EGELRYMHSRV [ABCD1_Y281_K276E],0.395
13,AIIGIYNLRDD [CDH23_Y2949_I2950N],0.45
14,KAIMTYVFSFY [ACTN4_Y260_S262F],0.54
15,TKAEKYVNKAK [PLCG1_Y991],0.403
16,PELIDYGKLWK [ACTN1_Y193_R197W],0.531

# System: c-Abl (mouse)
# Assay: as above
row,Sequence,phosphorylation enrichment
1,GFRVCYTPDSR [PTPRF_Y451_Y450C_YF],0.777
2,HEGKIYEFNQV [ZNF665_Y162_YF],1.6
3,RLSELYLRRNP [CFAP410_Y68_R73P],0.555
4,RRGTRYMFSRP [RPL21_Y13],0.971
5,FIILIYAMKKK [SLCO1B1_Y645_YF],0.51
6,LIEQAYDNPHE [PRPF8_Y871],0.767
7,FKNGDYSEVMK [LCT_Y1638_N1639S],0.429
8,IIEDPYYGNDF [ACP1_Y132_S137F],1.09
9,HTLMKYTDGDQ [PUS7L_Y94_I92M],1.08
10,VIKDKYPKAHF [APTX_Y209_R213H_YF],0.514
11,AGQEDYDRLRP [CDC42_Y64],0.689
12,GTVRDYPDFSP [ANXA3_Y15],0.532
13,SGPRCYTIAAL [TTR_Y125_R124C],0.46
14,YGGRDYSLDEF [MYOF_Y1705],0.809
15,SNKLTYGTMVF [ACOX1_Y275],0.836
16,EPTPGYEVSQR [TSC2_Y1788_G1791S],0.615
17,RKLASYRSCLL [DHX37_Y1080],0.627

row,Sequence,phosphorylation enrichment
1,QDLLLYQTHSE [PKHD1_Y255_F253L],0.888
2,GGRKGYGDFSR [RECQL5_Y478],0.944
3,KVFRVYQGQQP [MUTYH_Y494],0.413
4,LKLKAYRFSIS [LCT_Y974_V971L],2.51
5,GHLFAYDWIRI [BEST1_Y227_S231R_YF],0.674
6,AFPVSYSSSSA [RET_Y687_G691S],0.455
7,FIGCIYLYLTK [GARS1_Y414_R412C],0.746
8,GFEEAYSVSKK [PAFAH1B1_Y28_F31S_YF],0.464
9,FLLRVYSIFSK [SGCE_Y38_T36R],0.987
10,VGGRIYIDDGL [PKLR_Y218],0.727
11,MDYRSYPREYG [RBM10_Y44],0.472
12,EGELRYMHSRV [ABCD1_Y281_K276E],0.519
13,AIIGIYNLRDD [CDH23_Y2949_I2950N],0.691
14,KAIMTYVFSFY [ACTN4_Y260_S262F],0.966
15,TKAEKYVNKAK [PLCG1_Y991],0.92
16,PELIDYGKLWK [ACTN1_Y193_R197W],0.912
